The text below walks through data of patent US20040259075A1.

The target in this test is Env-CD4-CCR5 complex (Example II) (UniProt P01730). Put plainly: method not stated; reference is X5-Fab.
Chain of Env-CD4-CCR5 complex (Example II) (P51681 whole entry, chain 2 of 2, other chains not shown): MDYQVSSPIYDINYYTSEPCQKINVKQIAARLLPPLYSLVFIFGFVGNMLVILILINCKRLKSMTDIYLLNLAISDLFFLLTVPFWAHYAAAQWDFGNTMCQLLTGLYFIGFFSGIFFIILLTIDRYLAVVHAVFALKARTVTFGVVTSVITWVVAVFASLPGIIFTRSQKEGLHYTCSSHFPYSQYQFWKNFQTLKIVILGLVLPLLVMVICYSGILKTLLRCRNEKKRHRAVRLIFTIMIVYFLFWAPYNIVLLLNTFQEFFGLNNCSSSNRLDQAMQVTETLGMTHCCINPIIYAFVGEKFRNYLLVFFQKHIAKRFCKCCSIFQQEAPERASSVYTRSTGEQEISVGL

B1: FabS (Fab, V domains shown)
VH: VQLLEQSGAEVKKPGSSVQVSCKASGGTFSMYGFNWVRQAPGHGLEWMGGIIPIFGTSNYAQKFRGRVTFTADQATSTAYMELTNLRSDDTAVYYCARDFGPDWEDGDSYDGSGRGFFDFWGQGTLVTVSS
VL: ELVLTQSPGTLSLSAGERATLSCRASQSVSSGSLAWYQQKPGQAPRLLIYGASTRATGIPDRFSGSGSGTDFTLTIGRLEPEDLAVYYCQQYGTSPYTFGQGTKLEIKR
The molecule B1 returned a fold increased affinity compared to the original X5-Fab of 5 fold.
